One block for each binder: values may come before it.
Tests used:
Experiment in all cases: protein array
[1] = target: T1, zinc finger with KRAB and SCAN domains 4, transcript variant X1 (human, UniProt Q969J2 1-545)
T1 construct: on protein array; also called ZKSCAN4
T1 sequence: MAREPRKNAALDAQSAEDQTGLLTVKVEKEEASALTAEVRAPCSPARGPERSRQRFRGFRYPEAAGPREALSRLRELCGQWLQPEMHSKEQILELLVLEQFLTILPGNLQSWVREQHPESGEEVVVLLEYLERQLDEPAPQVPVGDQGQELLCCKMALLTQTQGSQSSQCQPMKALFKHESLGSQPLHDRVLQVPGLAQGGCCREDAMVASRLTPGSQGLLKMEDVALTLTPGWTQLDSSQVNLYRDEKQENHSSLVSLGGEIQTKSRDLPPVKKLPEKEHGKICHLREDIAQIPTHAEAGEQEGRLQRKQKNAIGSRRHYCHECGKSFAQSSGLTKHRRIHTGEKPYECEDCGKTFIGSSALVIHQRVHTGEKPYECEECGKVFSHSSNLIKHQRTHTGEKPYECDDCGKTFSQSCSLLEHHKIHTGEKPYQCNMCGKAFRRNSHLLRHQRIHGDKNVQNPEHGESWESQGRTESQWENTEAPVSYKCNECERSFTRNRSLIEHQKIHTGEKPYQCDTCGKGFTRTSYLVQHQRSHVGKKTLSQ

[2] = target: T2, Transforming growth factor beta 3 (human, UniProt P10600 24-412)
T2 construct: on protein array; also called TGFB3
T2 sequence: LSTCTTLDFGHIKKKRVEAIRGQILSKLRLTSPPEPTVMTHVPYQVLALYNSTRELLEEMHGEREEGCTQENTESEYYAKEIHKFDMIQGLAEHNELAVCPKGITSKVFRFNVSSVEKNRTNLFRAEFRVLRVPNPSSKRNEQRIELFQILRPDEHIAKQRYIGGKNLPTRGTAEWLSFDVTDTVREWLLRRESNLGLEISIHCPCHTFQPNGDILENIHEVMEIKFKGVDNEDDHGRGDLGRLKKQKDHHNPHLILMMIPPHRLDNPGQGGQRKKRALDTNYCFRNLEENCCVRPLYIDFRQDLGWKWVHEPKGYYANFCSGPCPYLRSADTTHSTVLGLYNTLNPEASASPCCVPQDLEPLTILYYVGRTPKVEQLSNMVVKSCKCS

[3] = target: T3, transforming growth factor beta induced (human, UniProt Q15582 24-683)
T3 construct: on protein array; also called TGFBI
T3 sequence: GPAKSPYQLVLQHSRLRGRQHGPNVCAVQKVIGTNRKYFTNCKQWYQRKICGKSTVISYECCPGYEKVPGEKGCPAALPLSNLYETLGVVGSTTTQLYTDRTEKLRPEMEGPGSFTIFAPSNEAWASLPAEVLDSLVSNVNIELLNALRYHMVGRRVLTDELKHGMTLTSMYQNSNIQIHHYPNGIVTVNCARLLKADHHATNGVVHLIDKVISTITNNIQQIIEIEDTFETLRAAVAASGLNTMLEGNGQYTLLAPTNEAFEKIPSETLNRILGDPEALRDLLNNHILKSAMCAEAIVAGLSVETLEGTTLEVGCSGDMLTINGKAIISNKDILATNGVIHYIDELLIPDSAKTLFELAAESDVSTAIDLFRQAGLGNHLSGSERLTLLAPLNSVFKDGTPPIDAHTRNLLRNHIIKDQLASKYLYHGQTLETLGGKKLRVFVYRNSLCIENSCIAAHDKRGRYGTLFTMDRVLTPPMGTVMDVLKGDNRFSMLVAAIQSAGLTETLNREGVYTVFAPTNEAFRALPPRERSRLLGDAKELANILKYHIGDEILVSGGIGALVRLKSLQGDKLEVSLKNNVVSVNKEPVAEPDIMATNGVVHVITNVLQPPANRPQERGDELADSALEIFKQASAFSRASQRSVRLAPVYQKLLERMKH

[4] = target: T4, BCL2 apoptosis regulator, transcript variant alpha (human, UniProt P10415 1-239)
T4 construct: on protein array
T4 sequence (P10415 whole entry, change not shown): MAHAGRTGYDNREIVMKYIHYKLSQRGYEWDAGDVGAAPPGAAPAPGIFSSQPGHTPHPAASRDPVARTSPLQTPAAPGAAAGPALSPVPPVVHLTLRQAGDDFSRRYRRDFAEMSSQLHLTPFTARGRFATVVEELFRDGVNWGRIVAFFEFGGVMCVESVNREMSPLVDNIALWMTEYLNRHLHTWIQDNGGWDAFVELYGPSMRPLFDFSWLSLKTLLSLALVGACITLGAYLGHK

[5] = target: T5, zinc finger DHHC-type containing 1, transcript variant 1 (human, UniProt Q8WTX9 1-485)
T5 construct: on protein array; also called ZDHHC1
T5 sequence: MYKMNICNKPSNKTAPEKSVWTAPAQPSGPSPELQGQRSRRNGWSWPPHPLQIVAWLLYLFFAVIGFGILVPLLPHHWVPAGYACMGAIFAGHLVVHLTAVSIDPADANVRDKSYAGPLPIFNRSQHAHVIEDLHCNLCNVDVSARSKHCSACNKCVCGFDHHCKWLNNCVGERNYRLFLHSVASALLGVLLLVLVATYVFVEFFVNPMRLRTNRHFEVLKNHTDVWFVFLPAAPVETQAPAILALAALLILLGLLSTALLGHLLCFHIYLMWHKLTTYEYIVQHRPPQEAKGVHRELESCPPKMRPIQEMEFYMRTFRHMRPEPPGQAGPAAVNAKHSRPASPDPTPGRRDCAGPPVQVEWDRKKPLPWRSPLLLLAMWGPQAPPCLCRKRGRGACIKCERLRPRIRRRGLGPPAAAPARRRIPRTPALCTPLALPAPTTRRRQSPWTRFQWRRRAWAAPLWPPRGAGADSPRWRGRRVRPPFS

[6] = target: T6, NFKB inhibitor beta, transcript variant 1 (human, UniProt Q15653 1-356)
T6 construct: on protein array; also called NFKBIB
T6 sequence: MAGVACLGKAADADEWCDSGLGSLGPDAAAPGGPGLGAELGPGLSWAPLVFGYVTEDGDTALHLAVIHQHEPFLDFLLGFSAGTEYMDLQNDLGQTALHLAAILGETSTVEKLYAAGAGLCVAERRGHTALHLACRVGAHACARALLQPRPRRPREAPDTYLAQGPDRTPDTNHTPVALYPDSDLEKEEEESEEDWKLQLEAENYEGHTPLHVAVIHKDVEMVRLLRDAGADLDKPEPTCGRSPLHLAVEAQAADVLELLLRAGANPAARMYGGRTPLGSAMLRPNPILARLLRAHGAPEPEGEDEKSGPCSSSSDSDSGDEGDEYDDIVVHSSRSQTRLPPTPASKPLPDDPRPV

[7] = target: T7, cyclin dependent kinase 2 associated protein 2, transcript variant 1 (human, UniProt O75956 1-126)
T7 construct: on protein array; also called CDK2AP2
T7 sequence: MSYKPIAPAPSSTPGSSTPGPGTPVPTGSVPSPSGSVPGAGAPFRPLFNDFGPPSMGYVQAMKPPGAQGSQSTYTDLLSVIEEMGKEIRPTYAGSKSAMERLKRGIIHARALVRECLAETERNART

[8] = target: T8, chymotrypsinogen B2 (human, UniProt Q6GPI1 19-263)
T8 construct: on protein array; also called CTRB2
T8 sequence (Q6GPI1 19-263 limits assumed): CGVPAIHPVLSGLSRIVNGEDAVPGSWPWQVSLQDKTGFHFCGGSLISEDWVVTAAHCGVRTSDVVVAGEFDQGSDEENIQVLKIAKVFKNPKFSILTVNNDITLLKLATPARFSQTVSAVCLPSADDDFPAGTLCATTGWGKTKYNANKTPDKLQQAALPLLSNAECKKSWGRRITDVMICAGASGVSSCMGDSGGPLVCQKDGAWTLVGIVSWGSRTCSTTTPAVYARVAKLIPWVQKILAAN

B1: TBRE1009 (antibody, V domains shown)
VH: EVQLVESGGGLVKPGGSLRLSCVGSGFTFSNYSMNWVRQAPGRGLEWVSSISWGSSYINYADSVKGRFTISRDNAKNSLYLQMTSLTAEDTAVYYCACRRIYQGFDPWGQGTLVT
VL: DIQMTQSPSSLSASVGDRVTISCRASHNINTYLNWYQHKPGKAPKIVIYGASSLQSGVPSRFSGSGSGTDFSLTISSLQREDFATYFCQQSFNTVLTFGGGTRVDI
notes: VH/VL only
binding result [1]: binds

B2: TSTO1003 (antibody, V domains shown)
VH: QVQLKQSGGGVVQPGRSLTLSCVASGLTFSDYGMHWVRQAPGKGLEWVAVIWHDGSKTNYADSVKGRIIISRDNSKSTVYLQMNRLRGEDTAVYYCATSHGGLVPGGENYWGQGTLVTVSS
VL: SDELTQPPSVSVSPGQTARITCSGDALAKEYAYWYQQKSGQAPVLVISKDTERPSGIPARFSGSSSGTTVTLTISGVQSDDEADYYCQSADSSLTYWLFGGGTKLTVLR
notes: VH/VL tied via antigen in summary, not by name in this stretch
binding result [2]: binds

B3: TSTO1008 (antibody, V domains shown)
VH: AVQLVQSGAEVKKPGESLRISCKGSGYSFSTYWIIWVRQMPGKGLEWIGRFDPSDSYNVNSPSFQGHVTISADTSINTAYLQWSSLKASDSAMYYCARRSDKAVPGTFDQWGQGTLVTVSS
VL: RSVLTQPPSVSAAPGQKVIISCSGSSSNIGNNYVSWYQQFLGTAPKLLIYDTDKRPSGIPDRFSGSKSGTSATLGITGLQTGDEAHYYCATWDSSLRAGPVVFGGGTKLTVLG
notes: as for B2
binding result [3]: binds

B4: TSTO1010 (antibody, V domains shown)
VH: EVQLVESGGGLVKPRGSLRLSCAASGFTFSAYGMNWVRQAPGKGLEWVSSISGDSRDIYYGASMKGRFTISRDNAKSSLYLQMNSLRAEDTAVYYCARGEGGELWAFDYWGLGVLVTVSS
VL: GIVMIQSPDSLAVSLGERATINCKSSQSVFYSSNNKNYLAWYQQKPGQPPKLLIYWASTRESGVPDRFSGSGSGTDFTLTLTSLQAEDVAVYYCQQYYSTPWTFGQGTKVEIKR
notes: as for B2
binding result [4]: binds

Other lines, results leading:

binding result [5]: binds
B5: TBLA1003 (antibody, V domains shown)
VH: EVQLVESGGGLIQPGRSLRLSCAASGFTFEDYAMHWVRQAPGKGLEWVSGISWNSGNIGYADSVKGRFTISRDNAKNSLYLQMHSLRPEDTALYYCAKDINFFGLGTGGGAMDVWGQGTTVTVSS
VL: DIQMTQSPSYVSASVGDRVTITCRASQGIDVWLAWYQQKPGKAPKLLIYTASSLQSGVPSRFSGSGGGTEFTLTISSLQPEDFATYYCQQSNSFPGTFGPGTKVDVKR
notes: VH/VL only

binding result [6]: binds
binding result [7]: binds
B6: TSTO1005 (antibody, V domains shown)
VH: EVQLVESGGGVVQPGGSLRLSCAASGFTFEDFGMHWVRQAPGKGLEWVAFTRFDGSEKYYVDSVKGRFTVSRDNSKNTLFLHMNSLRPEDTAVYYCAKTRSYSSADTTRPNAPGYWGQGTLVTVSS
VL: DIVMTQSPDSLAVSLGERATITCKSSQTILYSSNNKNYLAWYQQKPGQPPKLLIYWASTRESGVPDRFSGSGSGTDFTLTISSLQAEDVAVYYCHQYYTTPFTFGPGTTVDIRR
notes: as for B2

binding result [8]: binds
B7: TSTO1004 (antibody, V domains shown)
VH: QVQLVQSGSELKKPGASVKVSCTSSGYVFTSFGVSWVRQVPGQGPEWMGWISPYTRQTKYAQSLQGRITLTADTSTNTTYMELRSLRSDDTAMYYCVREEFGVVRGPNPFDVWGQGTMVTVSS
VL: DIQMTQAPSTLSASVGDRVSITCRASQNIRDFLAWYQQKPGRAPDLLIYRASTLEKGVSARFSGSGSGTEFTLTITGLQPDDFATYYCQQYSDYSTFGGGTRVEIK
notes: as for B2

— patent US20220204643A1 (published 2022)
